Experimental data as given in the supplement of paper PMC7125110.
± gives the standard error. For some assays here: Fewer inactive variants are shown than the library holds.

B1: glmS ribozyme (parent)
chain: AUAAAAGCGCCAGAACUACAGAAAUGUAGUUGACGAGGAGGAGGUUUAUCGAAUUUUCGGCGGAUGCCUCCAAA

Key:
Conditions in all cases: with glucosamine-6-phosphate
[1] = variants of: B1; test: kcat; higher = faster cleavage; RNA array
In short: (§1)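 Barcoded ribozyme variants were transcribed in situ on sequenced MiSeq chips by E. coli RNA polymerase. At 37 °C, a hybridised Cy3 probe tracked them while glucosamine-6-phosphate (40 μM to 10 mM) in HEPES/KCl/Mg(OAc)2 buffer flowed in and tiles were imaged over ~14 h. Per-tile medians of signals normalised to baseline and to non-cleaving reference variants were fit to one- or two-exponential decays, giving kobs. kcat and KM came from weighted Michaelis–Menten fits across concentrations.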

[2] = variants of: B1; test: KM; higher = weaker cofactor use; RNA array
In short: as §1

[3] = variants of: B1; test: self-cleavage kobs at 640 uM GlcN6P; higher = faster cleavage; RNA array
In short: as §1

[4] = variants of: B1; test: self-cleavage kobs at 2500 uM GlcN6P; higher = faster cleavage; RNA array
In short: as §1

[5] = variants of: B1; test: self-cleavage kobs at 10000 uM GlcN6P; higher = faster cleavage; RNA array
In short: as §1

[6] = variants of: B1; test: self-cleavage kobs at 160 uM GlcN6P; higher = faster cleavage; RNA array
In short: as §1

[7] = variants of: B1; test: self-cleavage kobs at 40 uM GlcN6P; higher = faster cleavage; RNA array
In short: as §1

Variant	kcat [1] [s⁻¹]	KM [2] [µM]	self-cleavage kobs at 640 uM GlcN6P [3] [s⁻¹]	self-cleavage kobs at 2500 uM GlcN6P [4] [s⁻¹]	self-cleavage kobs at 10000 uM GlcN6P [5] [s⁻¹]	self-cleavage kobs at 160 uM GlcN6P [6] [s⁻¹]	self-cleavage kobs at 40 uM GlcN6P [7] [s⁻¹]
C16U G44U	0.000229 ± 2.9e-05	1160 ± 450	7.8e-05 ± 1.7e-05	0.000216 ± 4.3e-05	0.000197 ± 2.3e-05		
U46A U69G	7.21e-05 ± 2.1e-05		0.000107 ± 1.7e-05	8.42e-05 ± 1.3e-05	4.27e-05 ± 1.3e-05		
A6G C16U	0.000459 ± 3.2e-05	3450 ± 450	6.74e-05 ± 1e-05	0.000208 ± 2.7e-05	0.000336 ± 3.2e-05	2.44e-05 ± 1.1e-05	
G13A A39U	0.000349 ± 1.8e-05	2910 ± 270	6.49e-05 ± 8.9e-06	0.000153 ± 2e-05	0.000277 ± 3.4e-05		
G59C U69G	1.85e-05 ± 5.2e-06						< 1e-05
U47A U54A	0.0235 ± 0.0067	1820 ± 700	0.00587 ± 0.001	0.0118 ± 0.0025	0.0314 ± 0.0084	0.00186 ± 0.00037	0.000584 ± 0.00012
A36C U49G	0.00221 ± 0.00064		0.000416 ± 0.00011	0.000851 ± 0.00021	0.00186 ± 0.00031		6.21e-05 ± 2.5e-05
U31G U69G	5.43e-05 ± 8.8e-06		5.73e-05 ± 1.2e-05	5.24e-05 ± 7.9e-06	4.43e-05 ± 1e-05	9.12e-05 ± 1.7e-05	
G60A C67G	1.56e-05 ± 2e-06						
A53G C70A	0.000194 ± 2e-05	63.2 ± 16	0.000188 ± 2.3e-05	0.000183 ± 2.6e-05		0.000132 ± 1.6e-05	7.6e-05 ± 7e-06
C8U U31A	< 1e-05		< 1e-05				
G13A A14U	0.000964 ± 0.00014	3120 ± 800	0.000184 ± 2.9e-05	0.000365 ± 5e-05	0.000781 ± 8e-05	5.13e-05 ± 1.1e-05	
G26U	0.0318 ± 0.01	1200 ± 480	0.00931 ± 0.0012	0.0179 ± 0.0032	0.0456 ± 0.0065	0.00324 ± 0.00048	0.00112 ± 7.2e-05
A12G U46G	0.000475 ± 2.8e-05	9040 ± 890	2.82e-05 ± 1.2e-05	0.000105 ± 1.5e-05	0.000248 ± 2.3e-05		
G13A U31A	0.00146 ± 4.2e-05	9800 ± 410	9.06e-05 ± 1.9e-05	0.000292 ± 6.9e-05	0.00074 ± 0.0001		
